In patent publication US20210041439A1:

Experiments:
[1] = tested on: cyclin E (substrate of the in vitro ubiquitylation assay)
[2] = molecular target: biotinylated phosphorylated cyclin E degron peptide; assay: ALPHAscreen, 384-well; His-FBW7 on Ni-chelate acceptor beads, biotin-peptide on streptavidin donor beads
[3] = molecular target: biotinylated phosphorylated cyclin E degron peptide; assay: ALPHAscreen, 1536-well primary screen, n=518 plates
[4] = molecular target: biotinylated phosphorylated cyclin E degron peptide; assay: ALPHAscreen, 384-well LOPAC screen; 25 nM FBW7 and 25 nM cyclin E phosphopeptide

fold ALPHA signal, phosphorylated versus unphosphorylated cyclin E degron peptide [2] [fold]	signal-to-background (S:B) (Wt-FBW7+pCycE-peptide high control versus Wt-FBW7+unphosphorylated CycE peptide low control) [3]	S:B ratio (wt-FBW7 high control versus mutant FBW7 low control, both with cyclin E phosphopeptide) [4]	Substance	reconstituted in vitro Cyclin E polyubiquitylation assay [1]
–	–	–	mutant FBW7 R505L (FBW7^ARG), recombinant dimeric Skp1-FBW7 complex	FBW7^ARG was inactive
–	–	–	wild-type F-box/WD repeat-containing protein 7 (FBW7), recombinant dimeric Skp1-FBW7 complex	wt-FBW7 was highly active
100	69.3	14.6	wild-type F-box/WD repeat-containing protein 7 (FBW7), recombinant dimeric Skp1-FBW7 complex (from UniProt P63208 1-163) (enzyme)	–
